Assay results published in article PMC11597407 (2024).
Ends that are not written are not given here.

T1: talin1 F2F3 domains
T1 chain: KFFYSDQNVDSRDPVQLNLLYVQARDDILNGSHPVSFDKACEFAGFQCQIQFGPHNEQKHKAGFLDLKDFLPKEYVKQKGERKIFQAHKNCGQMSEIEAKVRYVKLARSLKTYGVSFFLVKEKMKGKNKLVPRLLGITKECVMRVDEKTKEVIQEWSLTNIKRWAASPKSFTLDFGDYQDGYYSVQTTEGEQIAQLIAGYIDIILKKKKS

T2: talin2 F2F3 domains
T2 chain: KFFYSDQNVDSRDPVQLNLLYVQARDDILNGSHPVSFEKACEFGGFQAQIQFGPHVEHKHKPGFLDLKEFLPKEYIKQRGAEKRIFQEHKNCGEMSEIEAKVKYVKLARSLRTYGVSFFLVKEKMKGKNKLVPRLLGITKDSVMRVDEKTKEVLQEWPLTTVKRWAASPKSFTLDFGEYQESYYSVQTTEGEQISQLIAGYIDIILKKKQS


Experiments:
talin1 F2F3 domains = target: T1, talin1 F2F3 domains; assay: FP
talin2 F2F3 domains = target: T2, talin2 F2F3 domains; assay: FP

Kd (talin1 F2F3 domains)	Kd (talin2 F2F3 domains)	Binder
95.1 µM		KLLMIIHDRREFAKFEKEKMNAKWDTGENPIYKSAVTTVVNPKYEGK (not fully specified (N-terminus)) [β1A, listing 1 of 2 here]
	35.3 µM	KLLMIIHDRREFAKFEKEKMNAKWDTGENPIYKSAVTTVVNPKYEGK (not fully specified (N-terminus)) [β1A, listing 2 of 2 here]
